{"source": "the nanobody polyreactivity screen of Harvey et al. (2022)"}
{"test": "yeast display, Sf9 membrane polyspecificity reagent, FACS + sequencing; frameworks hold sequencing errors", "method_in_brief": "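Polyreactivity labels are assigned by the sorting gate from which each nanobody was recovered. The gates were low and high (top ~1%), set on anti-HA fluorescence for expression and streptavidin fluorescence for reagent binding. Before sorting, galactose-induced (36–48 hours) yeast display cells were stained for 1 hour at 4 °C with 10% biotinylated, detergent-solubilized Sf9 membrane reagent.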"}
{"sequence": "QLQHVESGGGLVQAGGSLRLSCAASGRIFGVNAQGWYRQAPGKERELVAAITSGGSTYYADSVKGRFTISRDNAKNTVYLQMKSLKPEDTAVYYGAARYYYLLWYTLPTKYDYWGQGTQVTVSS", "polyreactivity (PSR sort gate)": "high polyreactivity"}
{"sequence": "QLQLEESGGGLVQAGGSLRISCDASGTIFGNYAMGWYRQAPGKERELVAAITGSGGRTYYADSVKGRFTISRDNAKNTVYLQMNSLKPEDTAVYYCAARSYGRWYYTLYNYWGQGTQVTVSS", "polyreactivity (PSR sort gate)": "high polyreactivity"}
{"sequence": "QLQLEESGGGLVQAGGSLRLSCAASVRTLRRNAMGWYRQAPGKEKELVAAITGSGGSTYYADSVKGRFTISRDNAKNTVYLQMNSLKPEDTAVYYCAARGPSRRRDGSDYWGQGTQVTVSS", "polyreactivity (PSR sort gate)": "high polyreactivity"}
{"sequence": "QLQLEESGGGLVQAGGSLRLSCAAYGNILGYNAMGWYRQAPGKERELVAAISDNADSTYYADSVKGRFTISRDNAKNTVYLQMNSLKPEDPAVYYCAADWVLRTWLFWYTKYDYWGQGTQVTVSS", "polyreactivity (PSR sort gate)": "low polyreactivity"}
{"sequence": "QLQLQESGGGLVQAGGSLRLSCAASGSISHYIFMGWYRKAPGKEREFVAGIGYGGTTNYADSVKGRFTISRDNAINNVYLQMNSLKPEDTAMYYCAAREATEFYLYYWGQGTQVTVSS", "polyreactivity (PSR sort gate)": "low polyreactivity"}
{"sequence": "QLQLQESGRGLVQAGGSLRLSCAASGNIVDADIMGWYRQAPGKERELVASITDGGSTNYADSVKGRFTISRDNAKNTVYLQMNSLKTEDTAVYYCAAIAYPVIPTYFDYDSEYFYWGQGTQVTVSS", "polyreactivity (PSR sort gate)": "low polyreactivity"}
{"sequence": "QLQLVDSGGGLVQAGGSLRLSCAASGSIFAQYAMGWYRQAPEKERELVADISGDGSTYYADSVKGRFTISRDNAKNTVYLQMNSLKPEDTAVYYCADRKLYGSPEHGYWGQGTQVTVSS", "polyreactivity (PSR sort gate)": "high polyreactivity"}
{"sequence": "QLQLVESAGGLVQAGGSLRLRCAASGSTFSSYAMGWYRQAPWKERELVADITSSGGSTYYADSVKGRFTISRDNAKNSVYLQMNSLTPEDTAVYYCAADDVIFWLYYYWGQGTQVTVSS", "polyreactivity (PSR sort gate)": "low polyreactivity"}
{"sequence": "QLQLVESCGGLVQAGGSLRLSCAASGSILLNNAMGWYRQAPGKERELVAAISLSGGGSTYYADSVKGRFTLSRDNAKNTVYLQMNSLIPEDTAVYYCNADDPYLYYDSYDYWGQGTQVTVSS", "polyreactivity (PSR sort gate)": "low polyreactivity"}
{"sequence": "QLQLVESGAGLVQAGGSLRLSCAASGNIFRKNAMGRSRQAPGKERELVAAISRRGGNSYYADSVKGRFTISRDNAKNTVYLQMNSLKPEDTAVYYCAADWSPTAASDYWGQGTQVTVSS", "polyreactivity (PSR sort gate)": "high polyreactivity"}
{"sequence": "QLQLVESGGGFVQAGGSLRLSCAASGSTFQIYTMGWYRQAPGKERELVAAITNGGGSTYYADSVKGRFTISRDKANNTVYLQMNSLKPEDTAVYYCAAEQRYPLIILYDYWGQGTQVTVSS", "polyreactivity (PSR sort gate)": "low polyreactivity"}
{"sequence": "QLQLVESGGGFVQAGGSLRLSCDASGSTFGNYTMGWYRQAPGKERELVAAISFSGGRTYYADSVKGRFTISRDNAKNTVYLQMNSLKPADTAVYYCAKRSYGYSAFIYNYWGQGTQVTVSS", "polyreactivity (PSR sort gate)": "high polyreactivity"}
{"sequence": "QLQLVESGGGLVLAAGSLRLSCAASGYTFKSYAMGCSRQAPGKERELVAAISNGGNTYYADSVKGRFTISRDNAKNTVYIQMNSLKPEDTAVYYCAARYGYYYSRYDHWGQGTQVTVSS", "polyreactivity (PSR sort gate)": "low polyreactivity"}
{"sequence": "QLQLVESGGGLVPAGGSLRLSCASSGSIFKTYAMGWSRQAPGKDRELVAAIRGSGGSTYYADSVKGRFTIARDYAKNTVYLQMKSLKPEDTAFYYCARVGTKYRTNFFNGNDDWGQGTQVTVSS", "polyreactivity (PSR sort gate)": "low polyreactivity"}
{"sequence": "QLQLVESGGGLVQAGCSLRLICAASGFTFYRNAMGWYRQAPGKEREFVAAISSSGGGTYYADSVKGRFTISRDNAKNTVYLQMNSLKPDDTAVYYCAAKYPQKTTVNSYGNSFYYWGQGTQVTVSS", "polyreactivity (PSR sort gate)": "high polyreactivity"}
{"sequence": "QLQLVESGGGLVQAGGSIRLSCAASGSIFYRYAKGWNRQAPGKESELVAAISSRGGSKYYADSVKARFTISRDNAKNTVYLQMNSLKPEDTAVYYCAARSGGSGGTYGYWGQGPQVTVSS", "polyreactivity (PSR sort gate)": "high polyreactivity"}
{"sequence": "QLQLVESGGGLVQAGGSLLLSCAASGITFPANAMGWYRQAPGKERELVAAITGRGGRTYYADSVKGRFTISRYYAKNTVYLQMISLKPEDTAVYYCNAYLWRVTQNYDYWGQGTQVTVSS", "polyreactivity (PSR sort gate)": "high polyreactivity"}
{"sequence": "QLQLVESGGGLVQAGGSLRITCAASGSTFLTYSMGWYRQAPGKESELVAGISYSTGSTYYADSVKGRFTISRDNAKYTVYLQMNSLKPEDTAVYYCAADEWDCLWYYYYFNYEYWGQGTQVTVSS", "polyreactivity (PSR sort gate)": "low polyreactivity"}
{"sequence": "QLQLVESGGGLVQAGGSLRLISAASGLTFADYAMGWYRQAPGKERELVAAISSNGGSTNYADSVKGRFTISRDNAKNTVYLQMNSLKPEDTAVYYCAARPRNNARFWDYNYWGQGTQVTVSS", "polyreactivity (PSR sort gate)": "high polyreactivity"}
{"sequence": "QLQLVESGGGLVQAGGSLRLSCAASGFIFDSYAMGWYRQAPGKERELVAAISWSGSSTYYADSVKGRFTISRDNAKNTVFLQMNSLKPEDTAVYYCGALVYPYWGGSMYYWGQGTQVTVSS", "polyreactivity (PSR sort gate)": "high polyreactivity"}
{"sequence": "QLQLVESGGGLVQAGGSLRLSCAASGFTFWGYTIGWYRPAPGKERQLVAGITLSGGSTYYADSVKGRFTISRDNAKNTVYLQMNSLKPEDTAVYYCAAKPYQVSSYDFSLRDYWGQGTQVTVSS", "polyreactivity (PSR sort gate)": "low polyreactivity"}
{"sequence": "QLQLVESGGGLVQAGGSLRLSCAASGLIFIYYAMGWYRQAPGKERELVASITNSGGSTYYADSVKGRFTISRDNAKNTVYLQMNSLKPEDTALYYCAADYKTIVQRYGYYYWGQGTQVTVSS", "polyreactivity (PSR sort gate)": "low polyreactivity"}
{"sequence": "QLQLVESGGGLVQAGGSLRLSCAASGLTFNTYAMGWSRQAPAKERELVAAITKGGGRTYYADSVKGRFTISRDNAKNTVYLQMNSLKPEDTAVYYCAVVSWYRYSRYENDYWGQGTQVTVSS", "polyreactivity (PSR sort gate)": "high polyreactivity"}
{"sequence": "QLQLVESGGGLVQAGGSLRLSCAASGLTFSYYAMGWYRQAPGKETELVSAISRGGTTNYADSVKGRFTISRDNAKNTVYLQMNSLKPEDTAVYYCAASYFRRGFYSIYEYDYWGQGTQVTVSS", "polyreactivity (PSR sort gate)": "low polyreactivity"}
{"sequence": "QLQLVESGGGLVQAGGSLRLSCAASGRIFGVYVMGLYRQAPGKERELVAAISWSGSHTYYADSVKGRFTISRDNAKNTVYLQMNSLKPEDTAVYYCNADSYPDYTGPGLDWYDYWGQGTQVTVSS", "polyreactivity (PSR sort gate)": "low polyreactivity"}
{"sequence": "QLQLVESGGGLVQAGGSLRLSCAASGRTFGYNVMGWYRQAPGKERELVAAISSSGGSTYYADSVKGRFTISRDNAKNTVYLQMNSLKPEDTAVYYCAAQVRYYQSGPMYYWGQGTQVTVSS", "polyreactivity (PSR sort gate)": "high polyreactivity"}
{"sequence": "QLQLVESGGGLVQAGGSLRLSCAASGRTFYRNGKGWYIQAPGKERELVATISSGGITNYADSVKGRFTISRDNAKNTVYLQMNSLKPEDTAVYYCNAKKAYYGRGMNYWGQGTQVTVSS", "polyreactivity (PSR sort gate)": "low polyreactivity"}
{"sequence": "QLQLVESGGGLVQAGGSLRLSCAASGRTFYSYAKGWSRPAPGTDRQFVAAISVRGVITYYADSVKGRFTISRDNAKNTVYLQMNSLKPEDTAVDYCAADWSGYYTFDYWGQGTQVTVSS", "polyreactivity (PSR sort gate)": "low polyreactivity"}
{"sequence": "QLQLVESGGGLVQAGGSLRLSCAASGSIFFNYTMGWYRQAPGNERELVAAINSSGGRTNYADSVKGRFTISRDNAKNTVYLQMNSLKPEDTAVYYCAAGQSRYRELEYWGQGTQVTVSS", "polyreactivity (PSR sort gate)": "low polyreactivity"}
{"sequence": "QLQLVESGGGLVQAGGSLRLSCAASGSIFNRYAMGSYRQAPGKERELVAAITRSAARTYYADSVKGRFTISRDNAKTTVYLQMNRLKPEDTAVYYCKAATTPYGYSYYYLGQGTQVTVSS", "polyreactivity (PSR sort gate)": "high polyreactivity"}
{"sequence": "QLQLVESGGGLVQAGGSLRLSCAASGSIFRTNVMGWYRQAPGKERELVAAISRRGGSTYYADSVKGRFTISRDNAKNTVYLQMISLKPEDTAVYYCAASSSAYRDDYWGQGTQVTVSS", "polyreactivity (PSR sort gate)": "high polyreactivity"}
{"sequence": "QLQLVESGGGLVQAGGSLRLSCAASGSIFVTYAMGWYSQAPGKEMELVAAINYSGGSTYYADSVTGRFTISRDNAKNTVYLQMNSLKPEATAVYYCAAAVAVFSFDYPHYYEYEYWGQGTQVTVSS", "polyreactivity (PSR sort gate)": "low polyreactivity"}
{"sequence": "QLQLVESGGGLVQAGGSLRLSCAASGSIFYPYAMGWYRQAPGKERELVATINEDGGSTYYADSVKGRFTISRDNAKNTVYLQMNSLKQEDTAVYYCNTDHFEDYHTDFWSDYEYWGHGTQVTVSS", "polyreactivity (PSR sort gate)": "low polyreactivity"}
{"sequence": "QLQLVESGGGLVQAGGSLRLSCAASGSISAVNTMGWYRQAPRKERELVATISYSTASTYYADSVKGRFTISRDNAKITVYLQINSRKPEDTAFYYCNKDGRRYAYNSEYDHWGQGTQVTVSS", "polyreactivity (PSR sort gate)": "low polyreactivity"}
{"sequence": "QLQLVESGGGLVQAGGSLRLSCAASGSTFPEYVMGWYRQAPAKERELVAAITRRGGRTYYADSVKGRFTISRDNAKNTVYFQMNSLKPEDTAVYYCAAKSAVVVGMDSWGQGTQVTVSS", "polyreactivity (PSR sort gate)": "high polyreactivity"}
{"sequence": "QLQLVESGGGLVQAGGSLRLSCAASGSTFVYNAMGWYRQAPGKERELVAAISTGGSTYYADSVKGRFTISRDNAKNTVYLQMNSLKPEDTAVYYCAAGYSWGYSSQKLRYGYWGQGTQVTVSS", "polyreactivity (PSR sort gate)": "high polyreactivity"}
{"sequence": "QLQLVESGGGLVQAGGSLRLSCAASGSTFVYYAMGWYRPAPGKERELVAGITSSGGSTYYADSVKGRFTISRDNAKNTVYLQMNSLKPEDTAVYYCAAYVWVQQGRYYYWGQGTQVTVSS", "polyreactivity (PSR sort gate)": "low polyreactivity"}
{"sequence": "QLQLVESGGGLVQAGGSLRLSCAASGSTFYAYAMGWYRQAPGKERELVARIRWRGGRTYYADSVKGRFTISRDNAKNTVYLRMNSLKPEDTAVYYCAADLSRAGGGYWGQGTQVTVSS", "polyreactivity (PSR sort gate)": "high polyreactivity"}
{"sequence": "QLQLVESGGGLVQAGGSLRLSCAASGSTFYLYDLGWYIQAPGKESELVAAITSSGGSTYYADSVKGRFTISLDNAKNTVYLQMTSLKPEDTAVYYCAARYRGWVYSYDYWGQGTQVTVSS", "polyreactivity (PSR sort gate)": "low polyreactivity"}
{"sequence": "QLQLVESGGGLVQAGGSLRLSCAPSGSIFYYSAMGWSRQAPGKESEFVAAITRNGGSTYYADSVKGRFTISRDNAKNTVYLQMNSLKPVATAVFYCNAVRVRVTSHRIRQLDYGYWGQGTQVTVSS", "polyreactivity (PSR sort gate)": "low polyreactivity"}
